Reference: patent US20090136450A1, “THERAPY FOR NEUROLOGICAL DISEASES” (priority 2005, published 2009)

System: Experimental Autoimmune Encephalomyelitis (EAE)
Assay: chronic EAE model in C57BY6 mice, clinical score
Format: in vivo
Details: chronic EAE in C57BY6 mice (MOG/CFA + B. pertussis toxin); subcutaneous daily treatment, 20,000 U/mouse, started at onset of the disease, 28 to 30 days
Protocol: The most widely used animal model for multiple sclerosis is Experimental Autoimmune Encephalomyelitis (EAE), based on shared histopathological and clinical features with the human disease:
The chronic EAE model in C57BY6 mice shares some common traits with the primary progressive (PP) or secondary progressive (SP) forms of MS. Mice are immunized in both flanks at day 0 and day 7 with 200 μg s.c. of myelin oligodendrocyte glycoprotein (MOG) in Complete Freund's Adjuvant (CFA) and followed by two injections (on day 0 and day 2) with 500 ng i.p. of B. pertussis toxin.
Groups are composed of 10 to 13 EAE mice. Clinical scores, overall health status, body weight and mortality are recorded daily. Starting from day 7 the animals are individually examined for the presence of paralysis by means of a clinical score: 0=no sign of disease, 1=tail paralysis, 2=tail paralysis+hindlimb weakness or partial hindlimb paralysis, 3=tail paralysis+complete hindlimb paralysis, 4=tail paralysis+hindlimb paralysis+weakness or partial paralysis of forelimbs, 5=moribund or dead.
Starting from day 10-12, most animals are becoming increasingly paralysed.
Therapeutic treatments are started at the onset of the disease, thus once the disease is already established but still progressing and continued for 28 to 30 days. […]

B1: mIFNβ: mIFNβ (Serono Pharmaceutical Research Institute, Geneva), interferon beta given to EAE mice (protein, UniProt P01575 22-182, looked up)
Interferon beta: INYKQLQLQERTNIRKCQELLEQLNGKINLTYRADFKIPMEMTEKMQKSYTAFAIQEMLQNVFLVFRNNFSSTGWNETIVVRLLDELHQQTVFLKTVLEEKQEERLTWEMSSTALHLKSYYWRVQRYLKLMKYNSYAWMVVRAEIFRNFLIIRRLTRNFQN
- clinical output (severity of the disease, paralysis clinical score): significantly reducing the severity of the disease from complete hindlimb to partial hindlimb paralysis
